Results published in patent US20220056142A1 (Sanofi, published 2022).

How the values were obtained:
cynomolgus FGFR3 = target: T1, cynomolgus FGFR3 (cynomolgus); assay: reactivity grade (Table 2); method not given
T1 construct: also called cynoFGFR3
T1 chain: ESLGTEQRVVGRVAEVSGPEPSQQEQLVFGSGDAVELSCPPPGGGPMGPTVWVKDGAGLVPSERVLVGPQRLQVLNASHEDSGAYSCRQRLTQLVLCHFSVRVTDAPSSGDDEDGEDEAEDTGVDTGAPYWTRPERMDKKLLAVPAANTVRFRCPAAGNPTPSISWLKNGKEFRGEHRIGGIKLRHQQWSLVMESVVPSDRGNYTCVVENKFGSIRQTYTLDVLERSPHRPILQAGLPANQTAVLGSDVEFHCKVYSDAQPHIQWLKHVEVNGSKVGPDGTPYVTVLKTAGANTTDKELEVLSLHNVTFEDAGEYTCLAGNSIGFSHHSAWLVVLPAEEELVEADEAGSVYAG

human FGFR3 isoform IIIc = target: T2, human FGFR3 isoform IIIc (human, UniProt P22607 23-375, limits assumed); assay: reactivity grade (Table 2); method not given
T2 construct: also called hFGFR3IIIc; FGFR3 IIIc
T2 sequence: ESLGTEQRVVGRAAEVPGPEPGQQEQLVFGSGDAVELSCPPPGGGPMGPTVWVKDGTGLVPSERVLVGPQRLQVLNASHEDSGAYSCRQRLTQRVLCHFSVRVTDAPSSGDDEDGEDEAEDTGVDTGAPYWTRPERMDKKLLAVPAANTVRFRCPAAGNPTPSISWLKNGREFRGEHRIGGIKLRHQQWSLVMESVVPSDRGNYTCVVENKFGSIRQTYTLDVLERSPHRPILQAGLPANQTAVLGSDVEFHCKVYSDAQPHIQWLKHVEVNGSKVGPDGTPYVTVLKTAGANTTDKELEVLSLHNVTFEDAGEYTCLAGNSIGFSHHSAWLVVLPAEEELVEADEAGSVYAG

human FGFR3 isoform IIIb = target: T3, human FGFR3 isoform IIIb (human, UniProt P22607-2 23-377); assay: reactivity grade (Table 2); method not given
T3 construct: Isoform IIIb differs from the canonical IIIc entry in the D3 domain; also called hFGFR3IIIb; FGFR3 IIIb
T3 sequence (looked up): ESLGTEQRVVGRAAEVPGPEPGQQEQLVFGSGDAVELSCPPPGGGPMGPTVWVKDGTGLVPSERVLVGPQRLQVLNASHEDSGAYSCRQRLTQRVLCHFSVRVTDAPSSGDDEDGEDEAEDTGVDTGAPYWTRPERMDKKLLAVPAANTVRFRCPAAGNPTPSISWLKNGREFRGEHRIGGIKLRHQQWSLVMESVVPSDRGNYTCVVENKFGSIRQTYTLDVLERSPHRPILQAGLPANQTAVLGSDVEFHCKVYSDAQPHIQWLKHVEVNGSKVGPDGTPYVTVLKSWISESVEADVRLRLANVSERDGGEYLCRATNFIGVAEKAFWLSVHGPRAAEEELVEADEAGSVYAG

[1] = target: T4, N-terminal ECD protein of mouse FGFR3 with a terminal avidin tag (mouse, UniProt Q61851 21-369); assay: SPR (Biacore), FGFR3 ECD immobilised on chip, antibody injected, 1:1 fit
T4 construct: extracellular domain; not shown: terminal avidin tag
T4 sequence (looked up): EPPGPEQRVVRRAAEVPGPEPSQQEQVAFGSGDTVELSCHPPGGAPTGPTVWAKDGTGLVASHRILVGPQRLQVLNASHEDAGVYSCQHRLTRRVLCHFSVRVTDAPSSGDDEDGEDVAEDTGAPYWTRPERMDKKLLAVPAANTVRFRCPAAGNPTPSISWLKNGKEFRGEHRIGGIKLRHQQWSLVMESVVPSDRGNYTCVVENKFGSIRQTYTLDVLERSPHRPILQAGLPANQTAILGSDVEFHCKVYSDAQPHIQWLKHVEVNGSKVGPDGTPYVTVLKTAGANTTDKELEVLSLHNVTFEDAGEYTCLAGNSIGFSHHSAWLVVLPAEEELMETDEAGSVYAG

human FGFR3 = target: T5, human FGFR3 (human, UniProt P22607 23-375); assay: affinity table; method not restated (Biacore SPR per Example 1)
T5 construct: also called hFGFR3
T5 sequence: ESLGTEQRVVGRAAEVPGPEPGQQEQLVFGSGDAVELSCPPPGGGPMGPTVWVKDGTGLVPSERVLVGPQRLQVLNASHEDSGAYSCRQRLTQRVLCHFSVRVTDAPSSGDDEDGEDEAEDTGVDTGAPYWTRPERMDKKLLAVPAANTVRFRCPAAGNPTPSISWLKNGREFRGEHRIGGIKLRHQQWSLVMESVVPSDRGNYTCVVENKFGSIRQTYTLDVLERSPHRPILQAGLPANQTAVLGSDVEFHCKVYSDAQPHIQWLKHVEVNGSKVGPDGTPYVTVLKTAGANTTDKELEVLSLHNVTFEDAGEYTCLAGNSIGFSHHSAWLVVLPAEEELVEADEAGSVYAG

mouse FGFR3 = target: T6, mouse FGFR3 (mouse, UniProt Q61851 21-369); assay: as above
T6 construct: extracellular domain; also called mFGFR3
T6 sequence (looked up): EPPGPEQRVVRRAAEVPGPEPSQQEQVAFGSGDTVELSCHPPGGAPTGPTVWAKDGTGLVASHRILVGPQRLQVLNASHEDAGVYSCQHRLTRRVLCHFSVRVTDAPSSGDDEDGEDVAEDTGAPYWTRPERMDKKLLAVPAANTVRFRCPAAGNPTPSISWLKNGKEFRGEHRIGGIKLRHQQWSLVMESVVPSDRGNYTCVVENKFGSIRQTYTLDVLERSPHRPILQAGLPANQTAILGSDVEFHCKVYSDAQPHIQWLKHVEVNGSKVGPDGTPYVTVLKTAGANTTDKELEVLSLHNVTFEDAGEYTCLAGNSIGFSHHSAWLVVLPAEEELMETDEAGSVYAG

Binder | binding result (cynomolgus FGFR3) | binding result (human FGFR3 isoform IIIc) | binding result (human FGFR3 isoform IIIb) | Kd [1] [nM] | koff [1] [s⁻¹] | kon [1] [M⁻¹ s⁻¹] | Kd (human FGFR3) [nM] | Kd (mouse FGFR3) [nM]
KE35 (antibody, V domains shown, Mouse monoclonal antibody from a hybridoma; also called anti-FGFR3 antibody KE35) VH: EVQLQQSGPELVKPGASVKMSCKASGYTFTDYNMHWVKQSHGKSLEWIGYINPNNGGTRYNQKFKGKATLTVNKSSSTAYMELRSLTSEDSAVYYCARERDYDGAMDYWGQGTSVTVSS VL: DIQMTQSPSSLSASLGGKVTITCKASQDINKFIAWYQHKPGKGPRLLIHYTSTLQPGIPSRFSGSGSGRDYSFSISNLEPEDIATYYCLQYDNLLWTFGGGTKLEIK | binds | binds | binds | 1.89 | 0.00108 | 571000 | – | –
KE42 (antibody, V domains shown, Mouse monoclonal antibody from a hybridoma; also called anti-FGFR3 antibody KE42) VH: EVQLQQSGPELVKPGASVKMSCKASGYTFTDYNMHWVKQSHGKSLQWIGYINPNNGGTNYNQNFKDKATLTVNKSSTTAYMELRSLTSEDSAVYYCARERDYDGSMDFWGQGTSVTVSS VL: DIQMTQSPSSLSASLGGKVTITCKASQDINKFIAWYQHKPGKGPRLLIHYTSTLQPGIPSRFSGSGSGRDYSFSISNLEPEDIATYFCLQYDNLLWTFGGGTKLEIK | binds | binds | binds | 0.81 | 0.0006 | 739000 | – | –
KE58 (antibody, V domains shown, Mouse monoclonal antibody from a hybridoma; also called anti-FGFR3 antibody KE58) VH: EVQLQQSGPDLVKPGASVKISCKASGYTVTDYYMNWVKQSHGKSLEWIGDINPNNGVTTYNQKFKDKATLTVDKSSSTAYMELRSLTSEDSAVYYCAREEDFDGFDYWGQGTTLTVSS VL: DIVMTQSHKFMSTSVGDRVSITCKASQDVSTGVAWYQQKPGQSPQLLIYWASTRHTGVPDRFTGSGSGTDYILTIRSVQAEDLALYYCQQHYSTPLTFGAGTKLELK | binds | binds | binds | 5.5 | 0.000918 | 167000 | – | –
KE63 (antibody, V domains shown, Mouse monoclonal antibody from a hybridoma; also called anti-FGFR3 antibody KE63) VH: QVQLQQSGAELVRPGASVTLSCKASGSTFSDFEIHWVKQTPVHGLEWIGGIDPETGGTAYNQKFKGKAILTADRSSSTAYMELRSLTSEDSAVYYCTRNYDGYSQTMDYWGQGTSVTVSS VL: NIMMTQSPSSLAVSAGEKVTMSCKSSQSVLYSSNQKNYLAWYQQKPGQSPKLLIYWASTRESGVPDRFTGSGSGTDFTLTISSVQAEDLAVYYCHQYLSSYTFGGGTKLEMK | binds | binds | binds | 6.7 | 0.00291 | 436000 | – | –
KC18_Hu16 (antibody, human IgG1, kappa, V domains shown) VH: EVQLVQSGAEVKKPGATVKLSCKASGDTFTDFEIHWVQQAPGKGLEWIGDVDPETGGTAYAEKFQGRATLTADRSTDTAYMELSSLRSEDTAVYYCTRTYDGYPYAMDYWGQGTLVTVSS VL: not shown | – | – | – | – | – | – | 3.76 | 4.23
KC18_Hu7 (antibody, human IgG1, kappa, V domains shown) VH: QVQLVQSGAEVKKPGASVKVSCKASGDTFTDFEIHWVRQAPGQGLEWIGDIDPETGSTSYAQKFQGRATLTADRSTSTAYMELSSLRSEDTAVYYCTRTYDGYPYAMDYWGQGTLVTVSS VL: not shown | – | – | – | – | – | – | 5.41 | 6.36
KC18_Hu10 (antibody, human IgG1, kappa, V domains shown) VH: EVQLVQSGAEVKKPGATVKLSCKASGDTFTDFEIHWVQQAPGKGLEWIGDVDPETGGTAYAEKFQGRATLTADRSTDTAYMELSSLRSEDTAVYYCTRTYDGYPYAMDYWGQGTLVTVSS VL: not shown | – | – | – | – | – | – | 4.73 | 5.15
KC18_Hu12 (antibody, human IgG1, kappa, V domains shown) VH: EVQLVQSGAEVKKPGATVKLSCKASGDTFTDFEIHWVQQAPGKGLEWIGDVDPETGGTAYAEKFQGRATLTADRSTDTAYMELSSLRSEDTAVYYCTRTYDGYPYAFDYWGQGTLVTVSS VL: not shown | – | – | – | – | – | – | 1.61 | 1.73
KC18_Hu13 (antibody, human IgG1, kappa, V domains shown) VH: QVQLVQSGAEVKKPGASVKVSCKASGDTFTDFEIHWVRQAPGQGLEWIGDIDPETGSTSYAQKFQGRATLTADRSTSTAYMELSSLRSEDTAVYYCTRTYDGYPYAMDYWGQGTLVTVSS VL: not shown | – | – | – | – | – | – | 4.52 | 5.28
KC18_Hu18 (antibody, human IgG1, kappa, V domains shown) VH: EVQLVQSGAEVKKPGATVKLSCKASGDTFTDFEIHWVQQAPGKGLEWIGDVDPETGGTAYAEKFQGRATLTADRSTDTAYMELSSLRSEDTAVYYCTRTYDGYPYAFDYWGQGTLVTVSS VL: not shown | – | – | – | – | – | – | 1.25 | 1.42
KC18_Hu23 (antibody, human IgG1, kappa, V domains shown) VH: QVQLVQSGAEVVKPGATVKISCKASGDTFTDFEIHWVQQAPGKGLEWIGDIDPETGGTAYNEKFQGRATLTADRSTSTAYMELSSLRSEDTAVYYCARTYDGYPYAMDYWGQGTTVTVSS VL: not shown | – | – | – | – | – | – | 2.68 | 3.35
KC18_Hu19 (antibody, human IgG1, kappa, V domains shown) VH: QVQLVQSGAEVVKPGATVKISCKASGDTFTDFEIHWVQQAPGKGLEWIGDIDPETGGTAYNEKFQGRATLTADRSTSTAYMELSSLRSEDTAVYYCARTYDGYPYAMDYWGQGTTVTVSS VL: not shown | – | – | – | – | – | – | 2.99 | 3.78
KC18_Hu27 (antibody, human IgG1, kappa, V domains shown) VH: QVQLVQSGAEVVKPGATVKLSCKASGDTFTDFEIHWVKQAPGKGLEWIGDIDPETGGTAYNEKFQGRATLTADRSTSTAYMELSSLRSEDTAVYYCTRTYDGYPYAMDYWGQGTTVTVSS VL: DIVMTQSPSSLAVSLGERVTMNCKSSQSLLYSNNQKNYLAWYQQKPGQSPKLLIYWASTRESGVPDRFSGSGSGTDFTLTISSVQAEDVAVYYCQQYYSYRTFGGGTKLEIKR | – | – | – | – | – | – | 3.9 | 4.6
KC18_Hu28 (antibody, human IgG1, kappa, V domains shown) VH: QVQLVQSGAEVVKPGASVKLSCKASGDTFTDFEIHWVKQAPGQGLEWIGDIDPETGGTAYNQKFQGRATLTADRSSSTAYMELSRLRSDDTAVYYCTRTYDGYPYAMDYWGQGTTVTVSS VL: DIVMTQSPSSLAVSLGERVTMNCKSSQSLLYSNNQKNYLAWYQQKPGQSPKLLIYWASTRESGVPDRFSGSGSGTDFTLTISSVQAEDVAVYYCQQYYSYRTFGGGTKLEIKR | – | – | – | – | – | – | 4.46 | 5.41
KC18_Hu34 (antibody, human IgG1, kappa, V domains shown) VH: QVQLVQSGAEVVKPGASVKLSCKASGDTFTDFEIHWVKQAPGQGLEWIGDIDPETGGTAYNQKFQGRATLTADRSSSTAYMELSRLRSDDTAVYYCTRTYDGYPYAMDYWGQGTTVTVSS VL: DIVMTQSPLSLAVTVGEKVSISCRSSQSLLYSNNQKNYLAWYQQKPGQSPKLLIYWGSTRESGVPDRFSGSGSGTDFTLTISRVEAEDVGVYYCQQYYSYRTFGGGTKLEIKR | – | – | – | – | – | – | 6.85 | 8.14
KC18 (antibody, V domains shown, Mouse hybridoma antibody; also called parental KC18 antibody) VH: QVQLQQSGAELVRPGASVTLSCKASGDTFTDFEIHWVKQTPVHGLEWIGDIDPETGGTAYNQKFRGRAMLTADRSSSTAYMELRSLTSEDSAVYYCTRTYDGYPYAMDYWGQGTSVTVSS VL: DIVMSQSPSSLAVSVGEKVTMSCKSSQSLLYSNNQKNYLAWYQQKPGQSPKLLIYWASTRESGVPDRFTGSGSGTDFTLTISSVKAEDLAVYYCQQYYSYRTFGGGTKLEIK | – | – | – | – | – | – | 2.73 | 3.78
